Data on 16 molecules can be found in patent US20030138440A1 (published 2003).

Ends that are not written are not given here. A value given as a limit tells only on which side of the number the result lay.

The labels stand for the following.
B1: chimeric fusion protein with the ATF-1-IL domain (other, not shown: large carriers)
chain: IKSLENRIAVLENQIKTLIEEIKTLKDLISN
modifications: also: domain of chimeric fusion protein, fusion partner and linker not given here
B2: chimeric fusion protein with the CJUN-IL domain (other, not shown: large carriers)
chain: IARLEEKIKTLKAQISELASTINMLREQIAQ
modifications: also: domain of chimeric fusion protein, fusion partner and linker not given here
B3: chimeric fusion protein with the JUN-D-LI domain (other, not shown: large carriers)
chain: LSRIEEKLKTIKSQLTEIASTLSLIREQLAQ
modifications: also: domain of chimeric fusion protein, fusion partner and linker not given here
B4: chimeric fusion protein with the CJUN-LL domain (other, not shown: large carriers)
chain: LARLEEKLKTLKAQLSELASTLNMLREQLAQ
modifications: also: domain of chimeric fusion protein, fusion partner and linker not given here
B5: chimeric fusion protein with the ATF2-IL domain (other, not shown: large carriers)
chain: IQSLEKKIEDLSSLIGQLQSEITLLRNEIAQ
modifications: also: domain of chimeric fusion protein, fusion partner and linker not given here
B6: chimeric fusion protein with the CJUN-LI domain (other, not shown: large carriers)
chain: LARIEEKLKTIKAQLSEIASTLNMIREQLAQ
modifications: also: domain of chimeric fusion protein, fusion partner and linker not given here
B7: chimeric fusion protein with the ATF-1-LL domain (other, not shown: large carriers)
chain: LKSLENRLAVLENQLKTLIEELKTLKDLLSN
modifications: also: domain of chimeric fusion protein, fusion partner and linker not given here
B8: chimeric fusion protein with the ATF2-LI domain (other, not shown: large carriers)
chain: LQSIEKKLEDISSLLGQIQSELTLIRNELAQ
modifications: also: domain of chimeric fusion protein, fusion partner and linker not given here
B9: chimeric fusion protein with the ATF2-LL domain (other, not shown: large carriers)
chain: LQSLEKKLEDLSSLLGQLQSELTLLRNELAQ
modifications: also: domain of chimeric fusion protein, fusion partner and linker not given here
B10: chimeric fusion protein with the CREB-Pa-IL domain (other, not shown: large carriers)
chain: IMSLEKKIEELTQTIMQLQNEISMLKNEIAQ
modifications: also: domain of chimeric fusion protein, fusion partner and linker not given here
notes: also called CREB-IL
B11: chimeric fusion protein with the ATF-1-II domain (other, not shown: large carriers)
chain: IKSIENRIAVIENQIKTIIEEIKTIKDLISN
modifications: also: domain of chimeric fusion protein, fusion partner and linker not given here
B12: chimeric fusion protein with the CREB-Pa-LL domain (other, not shown: large carriers)
chain: LMSLEKKLEELTQTLMQLQNELSMLKNELAQ
modifications: also: domain of chimeric fusion protein, fusion partner and linker not given here
notes: also called CREB-LL
B13: chimeric fusion protein with the JUN-D-LL domain (other, not shown: large carriers)
chain: LSRLEEKLKTLKSQLTELASTLSLLREQLAQ
modifications: also: domain of chimeric fusion protein, fusion partner and linker not given here

For one data set, the target named is ICAM-1 on HeLa cells (human) (UniProt P05362). The data set can be described thus: cell-based or functional assay.
Chain of ICAM-1 on HeLa cells (human) (P05362 28-532): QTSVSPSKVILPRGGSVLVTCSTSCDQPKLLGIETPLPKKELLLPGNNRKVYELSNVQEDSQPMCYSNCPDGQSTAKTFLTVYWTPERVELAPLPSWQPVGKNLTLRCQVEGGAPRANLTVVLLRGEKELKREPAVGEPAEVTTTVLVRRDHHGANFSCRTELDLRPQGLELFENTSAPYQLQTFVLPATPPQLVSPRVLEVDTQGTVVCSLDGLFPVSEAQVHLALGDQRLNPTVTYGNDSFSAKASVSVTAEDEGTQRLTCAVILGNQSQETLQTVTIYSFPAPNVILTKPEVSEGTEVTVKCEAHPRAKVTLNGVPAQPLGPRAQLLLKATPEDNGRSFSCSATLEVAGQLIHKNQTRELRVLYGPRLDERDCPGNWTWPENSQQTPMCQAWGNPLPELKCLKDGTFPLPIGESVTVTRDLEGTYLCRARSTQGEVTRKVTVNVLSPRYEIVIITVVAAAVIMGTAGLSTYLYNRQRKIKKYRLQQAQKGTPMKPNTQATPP
Take “anti-ICAM-1 monoclonal antibody RR/1 (Chemicon)”: the EC50, protection of HeLa cells from HRV15 infection was greater than 10 nM.

A further data set deals with the molecule itself. The data set can be described thus: self-association of the chimeric protein; size exclusion HPLC. As to the method:
By correlation with sedimentation velocity data, the multimerization state of additional ATFα-based domains was determined by size exclusion HPLC. HPLC size exclusion chromatography was performed on a column selected to resolve species of chimeric multimers ranging from dimers through pentamers. The selected column also resolved species including the Fab moiety of the chimera: Tetramers (6.5S by ultracentrifugation) consistently eluted from the column at 13.7±0.1 min.; trimers (5.5S) eluted at 14.0±0.1; and dimers (4.5S) eluted at 15.0±0.1 min. Data on additional domains is listed in Table 7 along with those determined by sedimentation.
(In gel filtration, larger molecules generally elute earlier.)
With B1, the binding result is recorded as “binds”. The same measure, in the same setting: in the case of B2 it was “binds”; in that of B3, “binds”. Same read-out and setting: in the case of B4 it was “binds”.

As for B5, the binding result was “binds”. In the case of B6, the binding result is reported as “binds”. Consider B7, for which the binding result is on record as “binds”.

B8: the binding result is on record as “binds”. With LKSIENRLAVIENQLKTIIEELKTIKDLLSN (other, not shown: large carriers, also: chimeric fusion protein, fusion partner and linker not given here, copies left open) [chimeric fusion protein with the ATF-1-LI domain], the binding result is on record as “binds”. Consider LMSIEKKLEEITQTLMQIQNELSMIKNELAQ (other, not shown: large carriers, also: chimeric fusion protein, fusion partner and linker not given here, also called CREB-LI) [chimeric fusion protein with the CREB-Pa-LI domain], for which the binding result is reported as “binds”. In the case of B9, the binding result is recorded as “binds”. As for B10, the binding result was “binds”. Same read-out and setting: in the case of B11 it was “binds”. The same measure, in the same setting: the entry for B12 is “binds”. Regarding B13, the binding result is reported as “binds”.
